Source: IntAct's records for PubMed 22512862

B1: Phosphocarrier protein HPr (Bacillus subtilis), P08877 (parent)
chain: MAQKTFKVTADSGIHARPATVLVQTASKYDADVNLEYNGKTVNLKSIMGVMSLGIAKGAEITISASGADENDALNALEETMKSEGLGE
partner: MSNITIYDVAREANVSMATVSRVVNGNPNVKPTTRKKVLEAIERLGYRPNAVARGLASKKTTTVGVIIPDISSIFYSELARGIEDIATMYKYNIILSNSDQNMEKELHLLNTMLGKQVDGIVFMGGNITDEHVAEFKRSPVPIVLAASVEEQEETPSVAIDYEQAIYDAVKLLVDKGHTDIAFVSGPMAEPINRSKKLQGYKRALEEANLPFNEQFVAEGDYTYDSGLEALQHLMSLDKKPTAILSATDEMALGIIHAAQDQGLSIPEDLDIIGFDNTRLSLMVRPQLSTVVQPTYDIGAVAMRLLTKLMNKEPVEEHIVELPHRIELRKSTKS

Variants of: B1
Settings: with ccpa_bacsu ccpA
For MAQKTFKVTADSGIHARPATVLVQTASKYDADVNLEYNGKTVNLKAIMGVMSLGIAKGAEITISASGADENDALNALEETMKSEGLGE [S46A], the “effect of a mutation on the interaction” value was “disrupting interaction”.
